The source of these data is patent US20250121078A1, “PEPTIDE DRUG CONJUGATES AND THEIR USES” (priority 2023, published 2025).

Data set [1] concerns the target T1, LHRHR, also known as GnRHR (Homo sapiens, UniProt P30968).
T1 sequence (P30968 1-328): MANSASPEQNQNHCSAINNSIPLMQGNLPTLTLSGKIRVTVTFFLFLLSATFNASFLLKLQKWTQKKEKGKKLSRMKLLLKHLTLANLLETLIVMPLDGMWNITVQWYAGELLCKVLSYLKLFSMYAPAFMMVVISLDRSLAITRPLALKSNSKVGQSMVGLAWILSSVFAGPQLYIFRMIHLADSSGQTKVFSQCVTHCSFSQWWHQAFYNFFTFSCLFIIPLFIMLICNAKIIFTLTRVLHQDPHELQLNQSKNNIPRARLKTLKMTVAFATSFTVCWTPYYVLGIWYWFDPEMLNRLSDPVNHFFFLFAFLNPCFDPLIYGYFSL
Kind of data set: Radioligand binding assay ([125I]-[D-Trp6]-LHRH displacement). As for the experimental part:
An amount of 2 μg of a purified membrane with LHRHR, also known as GnRHR, was incubated with 0.18 nM [125I]-[D-Trp6]-LHRH and compounds of interest in the incubation buffer (50 mM HEPES, pH 7.4, 5 mM MgCl2, 1 mM CaCl2, and 0.2% BSA). The reaction mixtures were incubated for 1 h at 25° C. and then were transferred to a 96-well GF/B filter plate (Millipore Corp., Billerica, MA, USA), which were terminated by manifold filtration and washed with a wash buffer (50 mM HEPES, pH 7.4, and 100 mM NaCl) for six times. The radioactivity bound to the filter was measured by a Topcount® system (PerkinElmer Inc., Waltham, MA, USA). IC50 values were determined by the concentration of a compound required to inhibit 50% of the specific binding of [125I]-[D-Trp6]-LHRH and calculated by nonlinear regression (GraphPad Software, San Diego, CA, USA). The design of these drug conjugates is to actively targeting LHRH-receptor at tumor site and facilitate drug conjugate accumulation in situ. Therefore, selective and strong binding of the synthetic peptide ligand with the receptor is important to allow enrichment of these conjugates, followed by release of the drug payload in the tumor microenvironment.
Compounds of the invention have a binding as low as 0.17 nM.

Data set [2] can be described thus: In vivo pharmacokinetic profile, mouse single IV dose. To be noted: for Vss (I/kg) / clearance / AUC(0-t): Mouse IV, dose 5 mg/kg; for clearance / AUC(0-t): in vivo; for AUC(0-t): read-out: AUC(0-24 hr); for AUC coverage: single intravenous dose. As for the experimental part: Pharmacokinetic properties of compounds of the invention were measured following the procedures described in Liu et al., Bioconjugate Chem. 2017, 28, 7, 1878-1892.

For data set [3], the system named is HCC1806 triple negative breast cancer. Description: In vivo anti-tumor activity in triple-negative breast HCC1806 tumor model. To be noted: 1 mg/kg to 2.5 mg/kg, every other week, once a week, or twice a week. Also on record: species or system immunodeficient nude mice. As for the experimental part:
In vivo anti-tumor activity of Compound 16 was evaluated in triple-negative breast HCC1806 tumor model. HCC1806 cells were suspended with RPMI 1640 medium (phenol red free) and Matrigel™ in 1:1 ratio, and implanted subcutaneously (1×10^6 cells/flank) into the left flank of the immunodeficient nude mice. The tumor volume in mm^3 was calculated by the formula: Volume=(length×width^2)/2. Tumor-bearing mice were randomized (n=8 per group) when the average tumor volume was approximately at 210 mm^3 on day 10 after inoculation. Compound 16 was dissolved in DMA, cremorphor and 5% dextrose solution (1:2:27, v/v/v). Tumor-bearing mice were intravenously administered once weekly (qw) or bi-weekly (b2w) with multiple doses of vehicle control (5 mL/kg) and DBPR376 (2.5 mg/kg). Tumor size and body weight of each animal were measured twice weekly during the study period.
Compounds 8, 9, 11, 14, 16, 25, 26, and 27 were evaluated following the procedure described above.

Where a SMILES comes first, the peptide text is derived from it. [ ]: non-standard residue; d: D form. The star is where a group is joined. X2 = COc1cc2cc(c1Cl)N(C)C(=O)C[C@H](OC(=O)[C@H](C)N(C)C(=O)CCSSCCC(=O)NCCOCCOCCn1nnc3c1CC[C@H]1[C@@H](CC3)[C@@H]1COC(=O)*)[C@]1(C)O[C@H]1[C@H](C)[C@@H]1C[C@@](O)(NC(=O)O1)[C@H](OC)/C=C/C=C(\C)C2; X1 = COc1cc2cc(c1Cl)N(C)C(=O)C[C@H](OC(=O)[C@H](C)N(C)C(=O)CCSSCCC(=O)*)[C@]1(C)O[C@H]1C(C)[C@@H]1C[C@@](O)(NC(=O)O1)[C@H](OC)/C=C/C=C(\C)C2; d(hArg(Et2)) = CCN=C(NCC)NCCCC[C@@H](N)C(=O)O; dPhe(4-Cl) = N[C@H](Cc1ccc(Cl)cc1)C(=O)O; d2Nal = N[C@H](Cc1ccc2ccccc2c1)C(=O)O; d3Pal = N[C@H](Cc1cccnc1)C(=O)O

The term IC50 denotes the concentration needed to halve the response being measured. The term clearance denotes a measure of how efficiently the substance is removed, as volume per time. Higher therefore signals a high capacity for elimination. `COc1cc2cc(c1Cl)N(C)C(=O)C[C@H](OC(=O)[C@H](C)N(C)C(=O)CCSSCCC(=O)NCCCC[C@@H](NC(=O)[C@H](Cc1ccc(O)cc1)NC(=O)[C@H](CO)NC(=O)[C@@H](Cc1cccnc1)NC(=O)[C@@H](Cc1ccc(Cl)cc1)NC(=O)[C@@H](Cc1ccc3ccccc3c1)NC(C)=O)C(=O)N[C@@H](CC(C)C)C(=O)N[C@@H](CCCNC(=N)N)C(=O)N1CCC[C@H]1C(=O)N[C@H](C)C(N)=O)[C@]1(C)O[C@H]1C(C)[C@@H]1C[C@@](O)(NC(=O)O1)[C@H](OC)/C=C/C=C(\C)C2` (stereo partly shown) [Compound 8] (Ac-[d2Nal][dPhe(4-Cl)][d3Pal]SY[dK](X1)LRP[dA]-NH2) came in with an IC50 in data set [1] of 0.1 to 1 nM. In data set [2], the “Vss (I/kg)” value was 0.25 I/kg, the clearance is 1.6 mL/min/kg, the AUC(0-t) worked out at 55100 ng·h/mL and the AUC coverage entry is on record as “extensive AUC coverage”. Besides, the “inhibition of in vivo tumor growth” value in data set [3] is “effectively inhibited”.
As for `COc1cc2cc(c1Cl)N(C)C(=O)C[C@H](OC(=O)[C@H](C)N(C)C(=O)CCSC(=O)c1ccc(CN(CCOCCOCCn3nnc4c3CC[C@@H]3[C@H](CC4)[C@H]3COC(=O)N(CCCC[C@H](NC(=O)[C@H](CC(C)C)NC(=O)[C@@H](Cc3ccc(NC(N)=O)cc3)NC(=O)[C@H](Cc3ccc(NC(=O)[C@@H]4CC(=O)NC(=O)N4)cc3)NC(=O)[C@H](CO)NC(=O)[C@@H](Cc3cccnc3)NC(=O)[C@@H](Cc3ccc(Cl)cc3)NC(=O)[C@@H](Cc3ccc4ccccc4c3)NC(C)=O)C(=O)N3CCC[C@H]3C(=O)N[C@H](C)C(N)=O)C(C)C)C(=O)C3(c4ccc(Cl)cc4)CCCCC3)cc1)[C@]1(C)O[C@H]1[C@H](C)[C@@H]1C[C@@](O)(NC(=O)O1)[C@H](OC)/C=C/C=C(\C)C2` [Compound 9], in data set [2], the “Vss (I/kg)” value is reported as 0.2 I/kg, the clearance worked out at 6.7 mL/min/kg, the AUC(0-t) was found to be 12500 ng·h/mL and the AUC coverage result is reported as “extensive AUC coverage”. In addition, in data set [3], the “inhibition of in vivo tumor growth” value is on record as “effectively inhibited”.
Take `CCNC(=NCCCC[C@@H](NC(=O)[C@H](CC(C)C)NC(=O)[C@@H](CCCCNC(=O)OC[C@H]1[C@@H]2CCc3nnn(CCOCCOCCN(Cc4ccc(C(=O)SCCC(=O)N(C)[C@@H](C)C(=O)O[C@H]5CC(=O)N(C)c6cc(cc(OC)c6Cl)C/C(C)=C/C=C/[C@@H](OC)[C@@]6(O)C[C@H](OC(=O)N6)[C@@H](C)[C@@H]6O[C@@]56C)cc4)C(=O)C4(c5ccc(Cl)cc5)CCCCC4)c3CC[C@@H]21)NC(=O)[C@H](Cc1ccc(O)cc1)NC(=O)[C@H](CO)NC(=O)[C@@H](Cc1cccnc1)NC(=O)[C@@H](Cc1ccc(Cl)cc1)NC(=O)[C@@H](Cc1ccc2ccccc2c1)NC(C)=O)C(=O)N1CCC[C@H]1C(=O)N[C@H](C)C(N)=O)NCC` [Compound 11]: in data set [2], the “Vss (I/kg)” value was 0.1 I/kg, the clearance was 4 mL/min/kg and the AUC(0-t) came out at 21000 ng·h/mL. For the same compound, the “inhibition of in vivo tumor growth” value in data set [3] is on record as “effectively inhibited”.
With `CCNC(=NCCCC[C@@H](NC(=O)[C@H](CC(C)C)NC(=O)[C@@H](CCCCNC(=O)CCSSCCC(=O)N(C)[C@@H](C)C(=O)O[C@H]1CC(=O)N(C)c2cc(cc(OC)c2Cl)C/C(C)=C/C=C/[C@@H](OC)[C@@]2(O)C[C@H](OC(=O)N2)C(C)[C@@H]2O[C@@]12C)NC(=O)[C@H](Cc1ccc(O)cc1)NC(=O)[C@H](CO)NC(=O)[C@@H](Cc1cccnc1)NC(=O)[C@@H](Cc1ccc(Cl)cc1)NC(=O)[C@@H](Cc1ccc2ccccc2c1)NC(C)=O)C(=O)N1CCC[C@H]1C(=O)N[C@H](C)C(N)=O)NCC` (stereo partly shown) [Compound 14] (Ac-[d2Nal][dPhe(4-Cl)][d3Pal]SY[dK](X1)L[d(hArg(Et2))]P[dA]-NH2), the half-maximal inhibitory concentration (IC50) in data set [1] fell in the range of 1 to 10 nM. In data set [2], the “Vss (I/kg)” value came to 0.2 I/kg, the clearance was 0.9 mL/min/kg, the AUC(0-t) came out at 88300 ng·h/mL and the AUC coverage result is reported as “extensive AUC coverage”. For the same compound, the “inhibition of in vivo tumor growth” value in data set [3] is “effectively inhibited”.
Turning to `COc1cc2cc(c1Cl)N(C)C(=O)C[C@H](OC(=O)[C@H](C)N(C)C(=O)CCSC(=O)c1ccc(CN(CCOCCOCCn3nnc4c3CC[C@H]3[C@@H](CC4)[C@@H]3COC(=O)NCCCC[C@@H](NC(=O)[C@H](Cc3ccc(O)cc3)NC(=O)[C@H](CO)NC(=O)[C@@H](Cc3cccnc3)NC(=O)[C@@H](Cc3ccc(Cl)cc3)NC(=O)[C@@H](Cc3ccc4ccccc4c3)NC(C)=O)C(=O)N[C@@H](CC(C)C)C(=O)N[C@@H](CCCNC(=N)N)C(=O)N3CCC[C@H]3C(=O)N[C@H](C)C(N)=O)C(=O)C3(c4ccc(Cl)cc4)CCCCC3)cc1)[C@]1(C)O[C@H]1[C@H](C)[C@@H]1C[C@@](O)(NC(=O)O1)[C@H](OC)/C=C/C=C(\C)C2` [Compound 16], in data set [2], the “Vss (I/kg)” value stood at 0.5 I/kg, the clearance stood at 15.5 mL/min/kg and the AUC(0-t) turned out to be 4860 ng·h/mL. The “inhibition of in vivo tumor growth” value in data set [3] is given as “effectively inhibited”.
Take `COc1cc2cc(c1Cl)N(C)C(=O)C[C@H](OC(=O)[C@H](C)N(C)C(=O)CCSSCCC(=O)NCCOCCOCCn1nnc3c1CC[C@H]1[C@@H](CC3)[C@@H]1COC(=O)NCCCC[C@@H](NC(=O)[C@H](Cc1ccc(O)cc1)NC(=O)[C@H](CO)NC(=O)[C@@H](Cc1cccnc1)NC(=O)[C@@H](Cc1ccc(Cl)cc1)NC(=O)[C@@H](Cc1ccc3ccccc3c1)NC(C)=O)C(=O)N[C@@H](CC(C)C)C(=O)N[C@@H](CCCNC(=N)N)C(=O)N1CCC[C@H]1C(=O)N[C@H](C)C(N)=O)[C@]1(C)O[C@H]1[C@H](C)[C@@H]1C[C@@](O)(NC(=O)O1)[C@H](OC)/C=C/C=C(\C)C2` [Compound 25] (Ac-[d2Nal][dPhe(4-Cl)][d3Pal]SY[dK](X2)LRP[dA]-NH2): the “inhibition of in vivo tumor growth” value in data set [3] is listed as “effectively inhibited”.
Same read-out and setting: the entry for `CCNC(=NCCCC[C@@H](NC(=O)[C@H](CC(C)C)NC(=O)[C@@H](CCCCNC(=O)OC[C@H]1[C@@H]2CCc3nnn(CCOCCOCCNC(=O)CCSSCCC(=O)N(C)[C@@H](C)C(=O)O[C@H]4CC(=O)N(C)c5cc(cc(OC)c5Cl)C/C(C)=C/C=C/[C@@H](OC)[C@@]5(O)C[C@H](OC(=O)N5)[C@@H](C)[C@@H]5O[C@@]45C)c3CC[C@@H]21)NC(=O)[C@H](Cc1ccc(O)cc1)NC(=O)[C@H](CO)NC(=O)[C@@H](Cc1cccnc1)NC(=O)[C@@H](Cc1ccc(Cl)cc1)NC(=O)[C@@H](Cc1ccc2ccccc2c1)NC(C)=O)C(=O)N1CCC[C@H]1C(=O)N[C@H](C)C(N)=O)NCC` [Compound 26] (Ac-[d2Nal][dPhe(4-Cl)][d3Pal]SY[dK](X2)L[d(hArg(Et2))]P[dA]-NH2) is “effectively inhibited”.
Turning to `COc1cc2cc(c1Cl)N(C)C(=O)C[C@H](OC(=O)[C@H](C)N(C)C(=O)CCSC(=O)c1ccc(CN(CCOCCOCCn3nnc4c3CC[C@H]3[C@@H](CC4)[C@@H]3COC(=O)NCCCC[C@@H](NC(=O)[C@H](Cc3ccc(O)cc3)NC(=O)[C@H](CO)NC(=O)[C@@H](Cc3cccnc3)NC(=O)[C@@H](Cc3ccc(Cl)cc3)NC(=O)[C@@H](Cc3ccc4ccccc4c3)NC(C)=O)C(=O)N[C@@H](CC(C)C)C(=O)N[C@H](CCCNC(=N)N)C(=O)N3CCC[C@H]3C(=O)N[C@H](C)C(N)=O)C(=O)C3(c4ccc(Cl)cc4)CCCCC3)cc1)[C@]1(C)O[C@H]1[C@H](C)[C@@H]1C[C@@](O)(NC(=O)O1)[C@H](OC)/C=C/C=C(\C)C2` [Compound 27], in data set [2], the “Vss (I/kg)” value came out at 0.1 I/kg, the clearance worked out at 6.4 mL/min/kg and the AUC(0-t) was 15900 ng·h/mL. In data set [3], the “inhibition of in vivo tumor growth” value was “effectively inhibited”.
